Source: patent US20200283521A1 (GRANULAR THERAPEUTICS, published 2020)

Assays:
Assay in all cases: cell array, transfected fixed HEK293 cells
MS4A1 = target: T1, MS4A1 (human, UniProt P11836)
T1 construct: expressed in transfected HEK293 cells; also called CD20
T1 sequence (looked up): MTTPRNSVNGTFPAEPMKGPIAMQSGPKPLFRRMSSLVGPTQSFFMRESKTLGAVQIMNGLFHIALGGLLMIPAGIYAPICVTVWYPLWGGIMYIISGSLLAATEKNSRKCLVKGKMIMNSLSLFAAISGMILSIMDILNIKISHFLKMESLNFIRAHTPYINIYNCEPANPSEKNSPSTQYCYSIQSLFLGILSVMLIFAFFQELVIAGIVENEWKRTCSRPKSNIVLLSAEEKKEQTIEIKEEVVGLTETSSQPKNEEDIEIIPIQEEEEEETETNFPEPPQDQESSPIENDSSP
Method: (§1) Transfection of all plasmids was confirmed by screening for the co-encoded marker ZS green (FIG. 13A).
(§2) Primary hits (duplicate spots) were identified by analysing fluorescence (AF647 and ZsGreenl) on ImageQuant. Vectors encoding all hits were sequenced to confirm their correct identities. […] Slides were analysed as above.

ANXA6 = target: T2, ANXA6 (human, UniProt P08133)
T2 construct: expressed in transfected HEK293 cells
T2 sequence (looked up): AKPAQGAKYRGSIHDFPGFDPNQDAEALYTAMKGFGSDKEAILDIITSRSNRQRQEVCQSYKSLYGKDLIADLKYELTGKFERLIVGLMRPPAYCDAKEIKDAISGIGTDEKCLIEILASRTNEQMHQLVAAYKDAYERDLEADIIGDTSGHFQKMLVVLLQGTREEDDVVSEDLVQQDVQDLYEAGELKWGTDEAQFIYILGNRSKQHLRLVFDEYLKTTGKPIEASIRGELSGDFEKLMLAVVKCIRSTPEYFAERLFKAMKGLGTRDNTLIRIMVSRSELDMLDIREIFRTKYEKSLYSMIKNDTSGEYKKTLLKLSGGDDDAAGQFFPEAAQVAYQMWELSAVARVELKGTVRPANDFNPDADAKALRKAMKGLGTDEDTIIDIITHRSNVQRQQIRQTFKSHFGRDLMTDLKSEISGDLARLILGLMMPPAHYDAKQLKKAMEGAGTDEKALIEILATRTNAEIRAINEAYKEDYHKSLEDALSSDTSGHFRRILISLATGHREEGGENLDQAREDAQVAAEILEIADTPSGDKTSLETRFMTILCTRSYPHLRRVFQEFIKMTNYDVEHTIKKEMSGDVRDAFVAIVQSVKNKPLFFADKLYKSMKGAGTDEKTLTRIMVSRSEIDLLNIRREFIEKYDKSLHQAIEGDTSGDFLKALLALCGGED
Method: as §1, §2

MSN = target: T3, MSN (human, UniProt P26038)
T3 construct: expressed in transfected HEK293 cells
Method: as §1, §2

BAIAP2L2 = target: T4, BAIAP2L2 (human, UniProt Q6UXY1)
T4 construct: expressed in transfected HEK293 cells
T4 sequence (looked up): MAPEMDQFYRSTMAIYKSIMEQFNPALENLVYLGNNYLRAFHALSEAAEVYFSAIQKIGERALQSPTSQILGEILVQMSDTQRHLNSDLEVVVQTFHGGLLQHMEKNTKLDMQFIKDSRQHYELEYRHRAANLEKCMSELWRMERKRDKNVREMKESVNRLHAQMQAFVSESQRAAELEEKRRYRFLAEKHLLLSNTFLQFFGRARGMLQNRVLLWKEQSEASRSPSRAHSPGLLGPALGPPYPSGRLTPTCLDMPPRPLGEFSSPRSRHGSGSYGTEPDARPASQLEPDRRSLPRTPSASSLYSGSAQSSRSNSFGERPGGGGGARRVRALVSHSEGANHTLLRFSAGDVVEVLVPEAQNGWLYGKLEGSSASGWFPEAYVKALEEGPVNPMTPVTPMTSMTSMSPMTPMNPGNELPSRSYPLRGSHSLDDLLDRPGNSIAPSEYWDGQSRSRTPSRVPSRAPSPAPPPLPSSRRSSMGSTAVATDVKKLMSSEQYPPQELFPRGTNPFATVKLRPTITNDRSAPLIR
Method: as §1, §2

DES = target: T5, DES (human, UniProt P17661)
T5 construct: expressed in transfected HEK293 cells
Method: as §1, §2

EDN1 = target: T6, EDN1 (human, UniProt P05305)
T6 construct: expressed in transfected HEK293 cells
T6 sequence (looked up): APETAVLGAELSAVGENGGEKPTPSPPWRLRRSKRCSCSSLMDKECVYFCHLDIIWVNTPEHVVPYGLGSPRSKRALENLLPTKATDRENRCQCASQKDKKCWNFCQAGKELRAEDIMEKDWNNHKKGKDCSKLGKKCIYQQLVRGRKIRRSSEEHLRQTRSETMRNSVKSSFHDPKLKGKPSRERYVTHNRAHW
Method: as §1, §2

PSAPL1 = target: T7, PSAPL1 (human, UniProt Q6NUJ1)
T7 construct: expressed in transfected HEK293 cells
T7 sequence (looked up): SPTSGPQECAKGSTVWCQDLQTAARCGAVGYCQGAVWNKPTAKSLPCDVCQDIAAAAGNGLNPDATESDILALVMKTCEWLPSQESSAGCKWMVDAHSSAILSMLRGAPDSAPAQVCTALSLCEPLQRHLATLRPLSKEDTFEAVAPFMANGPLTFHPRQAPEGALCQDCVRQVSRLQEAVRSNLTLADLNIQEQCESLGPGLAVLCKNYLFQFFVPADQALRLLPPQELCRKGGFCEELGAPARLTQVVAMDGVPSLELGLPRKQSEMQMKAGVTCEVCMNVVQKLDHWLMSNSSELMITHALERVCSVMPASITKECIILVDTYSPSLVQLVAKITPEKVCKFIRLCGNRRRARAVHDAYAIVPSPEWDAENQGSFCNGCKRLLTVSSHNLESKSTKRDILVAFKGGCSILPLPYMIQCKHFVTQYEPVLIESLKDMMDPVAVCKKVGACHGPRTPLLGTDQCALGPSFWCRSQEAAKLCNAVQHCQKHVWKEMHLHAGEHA
Method: as §1, §2

PPT1 = target: T8, PPT1 (human, UniProt P50897)
T8 construct: expressed in transfected HEK293 cells
T8 sequence (looked up): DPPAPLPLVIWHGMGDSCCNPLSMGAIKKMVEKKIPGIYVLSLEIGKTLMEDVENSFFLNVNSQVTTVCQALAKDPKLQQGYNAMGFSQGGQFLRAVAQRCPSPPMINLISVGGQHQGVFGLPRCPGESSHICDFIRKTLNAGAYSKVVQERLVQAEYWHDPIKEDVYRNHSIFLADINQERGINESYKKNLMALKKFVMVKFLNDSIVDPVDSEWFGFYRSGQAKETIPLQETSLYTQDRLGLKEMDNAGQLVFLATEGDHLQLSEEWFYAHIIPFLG
Method: as §1, §2

Measured: binding result

T5 sequence (P17661 2-470 limits assumed): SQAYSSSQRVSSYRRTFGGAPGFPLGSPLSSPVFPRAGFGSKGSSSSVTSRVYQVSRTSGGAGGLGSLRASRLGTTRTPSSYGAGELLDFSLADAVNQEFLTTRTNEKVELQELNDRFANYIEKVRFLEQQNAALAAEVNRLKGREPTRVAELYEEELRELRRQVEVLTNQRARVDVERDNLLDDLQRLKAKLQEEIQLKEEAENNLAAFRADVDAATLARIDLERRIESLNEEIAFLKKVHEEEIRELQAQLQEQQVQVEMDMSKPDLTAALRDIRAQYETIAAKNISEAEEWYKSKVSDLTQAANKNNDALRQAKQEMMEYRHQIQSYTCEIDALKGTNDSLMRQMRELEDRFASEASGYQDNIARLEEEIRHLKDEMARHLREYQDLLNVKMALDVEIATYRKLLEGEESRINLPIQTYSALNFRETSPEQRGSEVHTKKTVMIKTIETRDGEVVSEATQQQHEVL
T3 sequence (P26038 2-577 limits assumed): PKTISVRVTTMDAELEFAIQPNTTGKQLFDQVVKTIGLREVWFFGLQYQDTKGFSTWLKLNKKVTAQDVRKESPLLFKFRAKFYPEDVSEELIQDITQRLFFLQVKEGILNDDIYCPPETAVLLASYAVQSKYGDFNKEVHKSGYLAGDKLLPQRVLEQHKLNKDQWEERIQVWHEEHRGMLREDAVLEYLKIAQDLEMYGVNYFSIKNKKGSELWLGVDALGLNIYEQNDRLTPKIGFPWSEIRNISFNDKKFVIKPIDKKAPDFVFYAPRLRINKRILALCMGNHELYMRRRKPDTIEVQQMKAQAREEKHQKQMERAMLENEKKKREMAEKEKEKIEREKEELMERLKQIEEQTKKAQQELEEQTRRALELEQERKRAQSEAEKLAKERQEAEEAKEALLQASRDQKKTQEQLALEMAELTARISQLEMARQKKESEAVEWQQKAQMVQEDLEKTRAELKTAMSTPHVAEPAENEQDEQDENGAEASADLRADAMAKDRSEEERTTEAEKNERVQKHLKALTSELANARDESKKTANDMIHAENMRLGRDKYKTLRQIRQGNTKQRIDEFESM

B1: MH1, human IgG1 (antibody, V domains shown)
VH: QVQLVQSGAEVKKPGASVKVSCKASGYTFTDYYMNWVRQAPGQGLEWMGRIYPGSGNTYYAQKFQGRVTMTRDTSTSTVYMELSSLRSEDTAVYYCARGVYYYDYWGQGTLVTVSS
VL: DIQMTQSPSSLSASVGDRVTITCRASQGIRTNLAWFQQKPGKAPKSLIYAASSLQSGVPSRFSGSGSGTDFTLTISSLQPEDFATYYCQQYNSYPRTFGGGTKVEIK
notes: IgG1; also called IgG1-MH1
no binding (tested: 2 µg/ml): MS4A1 | ANXA6 | MSN | BAIAP2L2 | DES | EDN1 | PSAPL1 | PPT1
